These results are taken from patent US20120230990A1 (MERCK SERONO, published 2012).

B8: human IL-22RA (recombinant, form not stated) (receptor)
chain: HAPEDPSDLLQHVKFQSSNFENILTWDSGPEGTPDTVYSIEYKTYGERDWVAKKGCQRITRKSCNLTVETGNLTELYYARVTAVSAGGRSATKMTDRFSSLQHTTLKPPDVTCISKVRSIQMIVHPTPTPIRAGDGHRLTLEDIFHDLFYHLELQVNRTYQMHLGGKQREYEFFGLTPDTEFLGTIMICVPTWAKESAPYMCRVKTLPDRTWT
notes: a soluble ECD is likely; also called hIL-22RA; human interleukin 22 receptor alpha

Experiment [1] addresses T1, human IL-22RA on cells (HepG2 hepatoma cells, normal human keratinocytes, BaF3 cells transfected with human … (human, UniProt Q8N6P7 16-574)).
T1 sequence: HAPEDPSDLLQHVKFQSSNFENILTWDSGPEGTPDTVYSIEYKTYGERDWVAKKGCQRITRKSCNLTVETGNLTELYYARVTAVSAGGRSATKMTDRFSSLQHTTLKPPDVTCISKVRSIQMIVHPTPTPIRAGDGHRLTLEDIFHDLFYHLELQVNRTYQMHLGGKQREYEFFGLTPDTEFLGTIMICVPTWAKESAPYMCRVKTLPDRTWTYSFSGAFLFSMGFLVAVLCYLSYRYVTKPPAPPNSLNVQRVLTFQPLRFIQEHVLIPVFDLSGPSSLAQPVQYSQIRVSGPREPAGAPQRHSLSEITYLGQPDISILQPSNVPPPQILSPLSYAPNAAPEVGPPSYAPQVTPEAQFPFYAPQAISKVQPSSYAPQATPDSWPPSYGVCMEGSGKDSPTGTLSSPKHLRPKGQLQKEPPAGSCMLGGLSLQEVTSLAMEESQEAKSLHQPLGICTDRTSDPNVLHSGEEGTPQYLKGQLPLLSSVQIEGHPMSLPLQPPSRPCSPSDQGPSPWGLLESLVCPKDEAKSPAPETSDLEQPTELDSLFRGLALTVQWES
Put plainly: cell-based or functional assay.

In experiment [2] the target is T2, murine IL-22RA on cells (HEPA1-6 hepatoma cells, BaF3 cells transfected with murine IL-22RA and IL-10RB) (murine, UniProt Q80XZ4 16-581).
T2 sequence (looked up): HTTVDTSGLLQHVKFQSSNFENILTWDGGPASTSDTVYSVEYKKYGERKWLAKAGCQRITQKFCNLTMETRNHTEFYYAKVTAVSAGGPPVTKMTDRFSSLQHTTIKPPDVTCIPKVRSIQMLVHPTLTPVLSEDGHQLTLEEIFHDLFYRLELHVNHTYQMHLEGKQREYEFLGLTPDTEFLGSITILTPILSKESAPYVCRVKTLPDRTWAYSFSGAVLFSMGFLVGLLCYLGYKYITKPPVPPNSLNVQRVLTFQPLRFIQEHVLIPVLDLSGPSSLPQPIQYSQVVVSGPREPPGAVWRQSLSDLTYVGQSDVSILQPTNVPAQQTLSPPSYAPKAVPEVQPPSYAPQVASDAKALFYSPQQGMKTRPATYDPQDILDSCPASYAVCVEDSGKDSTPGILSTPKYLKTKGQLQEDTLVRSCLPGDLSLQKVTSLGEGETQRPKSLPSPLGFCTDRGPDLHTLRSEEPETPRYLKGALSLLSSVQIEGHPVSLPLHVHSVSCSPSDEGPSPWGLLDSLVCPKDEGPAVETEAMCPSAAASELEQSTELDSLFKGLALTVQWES
Put plainly: cell-based or functional assay.

For experiment [3], the target named is T3, 280.346.TSY (humanized anti-human IL-22RA antibody comprising 280.VH3-66-46 paired with 280.VK4-1-TSY, human …).
T3 construct: Produced in CHO cells; also called 280.VH3-66-46/VK4-1-TSY; 280.VH3-66.46 paired with 280.IGKV4-1-TSY
T3 sequence (VL, as listed by the source): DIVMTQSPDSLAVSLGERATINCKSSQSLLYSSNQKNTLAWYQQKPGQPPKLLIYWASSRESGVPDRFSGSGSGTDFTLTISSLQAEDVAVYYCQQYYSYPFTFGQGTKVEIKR
The experiment in a line: competitive ELISA: soluble competitor against coated human IL-22RA-ECD for biotinylated 280-346-TSY; soluble murine IL-22RA as competitor. Here is the method: (§1) FIG. 23 reports the results of a competitive ELISA done to measure the specificity of 280.346.TSY to human IL-22RA. Microtiter plates were coated with human IL-22RA-ECD (i.e. IL-22RA-Extra Cellular Domain). Biotinylated 280-346-TSY antibody was added to the plate in the presence of competitors: human interleukin 22 receptor alpha (hIL-22RA), human IL-22 binding protein (hIL-22BP), murine IL-22 receptor alpha (mIL-22RA), human IL-10 receptor alpha (hIL-10R) and human IL-20 receptor alpha (hIL-20R).
(§2) Specificity and binding affinity of 280.346.TSY was determined using a competitive ELISA. Microtiter plates were coated with human IL-22RA-ECD (i.e. IL-22RA-Extra Cellular Domain). Biotinylated 280-346-TSY antibody was added to the plate in the presence of competitors: human interleukin 22 receptor alpha (hIL-22RA), human IL-22 binding protein (hIL-22BP), mouse IL-22 receptor alpha (mIL-22RA), human IL-10 receptor alpha (hIL-10R) and human IL-20 receptor alpha (hIL-20R).

Experiment [4] addresses B8. The experiment in a line: Biacore, NiNTA-purified Fab.
For experiment [5], the target named is T3, 280.346.TSY (humanized anti-human …). The experiment in a line: competitive ELISA: soluble competitor against coated human IL-22RA-ECD for biotinylated 280-346-TSY; soluble human IL-22RA as competitor. Here is the method:
as §1, §2

Values joined by “and” are separate entries in the source; they are usually repeats but may differ in a detail not shown here. Identical values can stand only once.

B1: mouse 280.46.3.4 (mouse anti-human IL-22RA monoclonal antibody from hybridoma 280.46.3.4, ATCC PTA-6284) (antibody, V domains shown)
VH: EVQLQQSGPELVRPGTSVKISCKASGYSLTADYMNWVKQSPEESLEWIGEINPSTGTTTYNQKFEAKATLTVDQSSNTAYLQLTSLTSEDSAVYYCARFDAYFDYWGQGTTVTVSS
VL: DIVMTQSPSSLAVSVGEKVTMSCKSSQSLLYSSNQKNCLAWYQQKPGQSPKLLIYWASSRESGVPDRFTGSGSGTDFTLTISSVKTEDLAVYYCQQYFSYPFTFGSGTKLEIKR
B1: in experiment [1], the “IC50, STAT3 phosphorylation assay in human HepG2 hepatoma cells stimulated with recombinant human IL-22” value was 0.333 nM and 0.37 nM and 0.266 nM; the “IC50, STAT3 phosphorylation assay in normal human keratinocytes stimulated with recombinant human IL-22” value was 0.542 nM; the “IC50, proliferation assay in BaF3 cells transfected with human IL-22RA and IL-10RB, cultured with recombinant human IL-22” value is 0.545 nM and 0.587 nM. Also, the “IC50, proliferation assay in BaF3 cells transfected with murine IL-22RA and IL-10RB, cultured with recombinant murine IL-22” value in experiment [2] is 0.849 nM and 1.47 nM.

B2: murine IL-22RA (recombinant, form not stated) (receptor, UniProt Q80XZ4 16-230, looked up)
chain: HTTVDTSGLLQHVKFQSSNFENILTWDGGPASTSDTVYSVEYKKYGERKWLAKAGCQRITQKFCNLTMETRNHTEFYYAKVTAVSAGGPPVTKMTDRFSSLQHTTIKPPDVTCIPKVRSIQMLVHPTLTPVLSEDGHQLTLEEIFHDLFYRLELHVNHTYQMHLEGKQREYEFLGLTPDTEFLGSITILTPILSKESAPYVCRVKTLPDRTWAYS
notes: also called mIL-22RA; mouse IL-22 receptor alpha
Take B2: the concentration for half-maximal inhibition (IC50) in experiment [3] came to 0.149 nM.

B3: humanized 280.46.3.4 antibody comprising 280.VH3-66-1 paired with 280.VK4-1-S, human IgG1/kappa (antibody, V domains shown)
VH: EVQLVESGGGLVQPGGSLRLSCAASGYSLTADYMNWVRQAPGKGLEWIGEINPSTGTTTYNQKFEARATLTVDQSKNTAYLQMNSLRAEDTAVYYCARFDAYFDYWGQGTLVTVSS
VL: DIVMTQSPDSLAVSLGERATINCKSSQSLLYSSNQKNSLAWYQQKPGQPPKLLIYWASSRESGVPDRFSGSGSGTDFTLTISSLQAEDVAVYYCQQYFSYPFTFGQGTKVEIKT
In the case of B3, in experiment [1], the “IC50, STAT3 phosphorylation assay in human HepG2 hepatoma cells stimulated with recombinant human IL-22” value was 0.258 nM; the “IC50, proliferation assay in BaF3 cells transfected with human IL-22RA and IL-10RB, cultured with recombinant human IL-22” value is 0.34 nM; the “fold potency against the mouse parental antibody 280.46.3.4, STAT3 phosphorylation assay in HepG2 cells” value (from here on “fold potency … in HepG2 cells”) came out at 1.4 fold; the “fold potency against the mouse parental antibody 280.46.3.4, proliferation of human IL-22 receptor transfected BaF3 cells” value came out at 1.7 fold. In experiment [2], the “IC50, proliferation assay in BaF3 cells transfected with murine IL-22RA and IL-10RB, cultured with recombinant murine IL-22” value amounted to 0.693 nM; the “fold potency against the mouse parental antibody 280.46.3.4, proliferation of murine IL-22 receptor transfected BaF3 cells” value was 2.1 fold.

B4: humanized 280.46.3.4 antibody comprising 280.VH3-66-18 paired with 280.VK4-1-T, human IgG1/kappa (antibody, V domains shown)
VH: EVQLVESGGGLVQPGGSLRLSCAASGYSLTAEYMNWVRQAPGKGLEWIGEINPSTGTTTYNQKFKGRATLSVDQSKNTAYLQMNSLRAEDTAVYYCARFDAYFDYWGQGTLVTVSS
VL: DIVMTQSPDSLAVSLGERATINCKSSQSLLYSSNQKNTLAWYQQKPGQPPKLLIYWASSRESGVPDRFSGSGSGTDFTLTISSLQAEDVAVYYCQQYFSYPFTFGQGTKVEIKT
On to B4, for which, in experiment [1], the “IC50, STAT3 phosphorylation assay in human HepG2 hepatoma cells” value came to 0.133 nM and the “fold potency … in HepG2 cells” value is roughly 3 fold.

B5: humanized 280.46.3.4 antibody comprising 280.VH3-66-4 paired with 280.VK4-1-T, human IgG1/kappa (antibody, V domains shown)
VH: EVQLVESGGGLVQPGGSLRLSCAASGYSLTADYMNWVRQAPGKGLEWIGEINPSTGTTTYNQKFKGRATLSVDQSKNTAYLQMNSLRAEDTAVYYCARFDAYFDYWGQGTLVTVSS
VL: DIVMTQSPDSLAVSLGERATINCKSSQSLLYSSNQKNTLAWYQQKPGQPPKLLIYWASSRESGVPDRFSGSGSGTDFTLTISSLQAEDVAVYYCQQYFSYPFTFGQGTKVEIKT
In the case of B5, in experiment [1], the “IC50, STAT3 phosphorylation assay in human HepG2 hepatoma cells stimulated with recombinant human IL-22” value was determined as 0.183 nM; the “IC50, proliferation of human IL-22 receptor (IL-22RA and IL-10RB) transfected BaF3 cells” value is 0.334 nM; the “fold potency … in HepG2 cells” value stood at 1.8 fold; the “fold potency against the mouse parental antibody 280.46.3.4, proliferation of human IL-22 receptor transfected BaF3 cells” value was 1.75 fold. Besides, in experiment [2], the “IC50, proliferation of murine IL-22 receptor (IL-22RA and IL-10RB) transfected BaF3 cells” value is 0.687 nM; the “fold potency against the mouse parental antibody 280.46.3.4, proliferation of murine IL-22 receptor transfected BaF3 cells” value stood at 2.1 fold.

B6: Fab of D96E mutant: 280.VH3-66-4 with Asp to Glu at position 96, paired with 280.VK4-1-T (Fab, name in Kabat numbering, V domains shown)
VH: EVQLVESGGGLVQPGGSLRLSCAASGYSLTADYMNWVRQAPGKGLEWIGEINPSTGTTTYNQKFKGRATLSVDQSKNTAYLQMNSLRAEDTAVYYCARFEAYFDYWGQGTLVTVSS
VL: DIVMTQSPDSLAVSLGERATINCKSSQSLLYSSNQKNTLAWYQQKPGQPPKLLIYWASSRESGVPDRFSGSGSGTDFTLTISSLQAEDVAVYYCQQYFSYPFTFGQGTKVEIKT
notes: NiNTA-purified Fab, which implies a His tag that is not described
Take B6: in experiment [4], the “fold reduction of affinity against parental unmutated D32 (280.VH3-66-4)” value was roughly 500 fold.

B7: Fab of D32E mutant: 280.VH3-66-18 paired with 280.VK4-1-T (Fab, V domains shown)
VH: EVQLVESGGGLVQPGGSLRLSCAASGYSLTAEYMNWVRQAPGKGLEWIGEINPSTGTTTYNQKFKGRATLSVDQSKNTAYLQMNSLRAEDTAVYYCARFDAYFDYWGQGTLVTVSS
VL: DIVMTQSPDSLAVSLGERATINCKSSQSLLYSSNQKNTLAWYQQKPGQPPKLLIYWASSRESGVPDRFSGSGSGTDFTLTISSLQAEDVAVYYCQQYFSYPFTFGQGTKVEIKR
notes: NiNTA-purified Fab, which implies a His tag that is not described; also called version 18
Regarding B7, in experiment [4], the “fold decrease of the off rate against parental unmutated D32 (280.VH3-66-4)” value is roughly 5 fold and the “fold increase of the on rate against parental unmutated D32 (280.VH3-66-4)” value was roughly 2 fold.
Take B8: the half-inhibitory concentration (IC50) in experiment [5] is 0.0182 nM.
